From IntAct's records for PubMed 33420071

B1: Dual oxidase 1 (Homo sapiens), Q9NRD9 (parent)
chain: MGFCLALAWTLLVGAWTPLGAQNPISWEVQRFDGWYNNLMEHRWGSKGSRLQRLVPASYADGVYQPLGEPHLPNPRDLSNTISRGPAGLASLRNRTVLGVFFGYHVLSDLVSVETPGCPAEFLNIRIPPGDPMFDPDQRGDVVLPFQRSRWDPETGRSPSNPRDPANQVTGWLDGSAIYGSSHSWSDALRSFSRGQLASGPDPAFPRDSQNPLLMWAAPDPATGQNGPRGLYAFGAERGNREPFLQALGLLWFRYHNLWAQRLARQHPDWEDEELFQHARKRVIATYQNIAVYEWLPSFLQKTLPEYTGYRPFLDPSISSEFVAASEQFLSTMVPPGVYMRNASCHFQGVINRNSSVSRALRVCNSYWSREHPSLQSAEDVDALLLGMASQIAEREDHVLVEDVRDFWPGPLKFSRTDHLASCLQRGRDLGLPSYTKARAALGLSPITRWQDINPALSRSNDTVLEATAALYNQDLSWLELLPGGLLESHRDPGPLFSTIVLEQFVRLRDGDRYWFENTRNGLFSKKEIEEIRNTTLQDVLVAVINIDPSALQPNVFVWHKGDPCPQPRQLSTEGLPACAPSVVRDYFEGSGFGFGVTIGTLCCFPLVSLLSAWIVARLRMRNFKRLQGQDRQSIVSEKLVGGMEALEWQGHKEPCRPVLVYLQPGQIRVVDGRLTVLRTIQLQPPQKVNFVLSSNRGRRTLLLKIPKEYDLVLLFNLEEERQALVENLRGALKESGLSIQEWELREQELMRAAVTREQRRHLLETFFRHLFSQVLDINQADAGTLPLDSSQKVREALTCELSRAEFAESLGLKPQDMFVESMFSLADKDGNGYLSFREFLDILVVFMKGSPEEKSRLMFRMYDFDGNGLISKDEFIRMLRSFIEISNNCLSKAQLAEVVESMFRESGFQDKEELTWEDFHFMLRDHNSELRFTQLCVKGVEVPEVIKDLCRRASYISQDMICPSPRVSARCSRSDIETELTPQRLQCPMDTDPPQEIRRRFGKKVTSFQPLLFTEAHREKFQRSCLHQTVQQFKRFIENYRRHIGCVAVFYAIAGGLFLERAYYYAFAAHHTGITDTTRVGIILSRGTAASISFMFSYILLTMCRNLITFLRETFLNRYVPFDAAVDFHRLIASTAIVLTVLHSVGHVVNVYLFSISPLSVLSCLFPGLFHDDGSELPQKYYWWFFQTVPGLTGVVLLLILAIMYVFASHHFRRRSFRGFWLTHHLYILLYVLLIIHGSFALIQLPRFHIFFLVPAIIYGGDKLVSLSRKKVEISVVKAELLPSGVTHLRFQRPQGFEYKSGQWVRIACLALGTTEYHPFTLTSAPHEDTLSLHIRAAGPWTTRLREIYSAPTGDRCARYPKLYLDGPFGEGHQEWHKFEVSVLVGGGIGVTPFASILKDLVFKSSVSCQVFCKKIYFIWVTRTQRQFEWLADIIREVEENDHQDLVSVHIYITQLAEKFDLRTTMLYICERHFQKVLNRSLFTGLRSITHFGRPPFEPFFNSLQEVHPQVRKIGVFSCGPPGMTKNVEKACQLINRQDRTHFSHHYENF
partner: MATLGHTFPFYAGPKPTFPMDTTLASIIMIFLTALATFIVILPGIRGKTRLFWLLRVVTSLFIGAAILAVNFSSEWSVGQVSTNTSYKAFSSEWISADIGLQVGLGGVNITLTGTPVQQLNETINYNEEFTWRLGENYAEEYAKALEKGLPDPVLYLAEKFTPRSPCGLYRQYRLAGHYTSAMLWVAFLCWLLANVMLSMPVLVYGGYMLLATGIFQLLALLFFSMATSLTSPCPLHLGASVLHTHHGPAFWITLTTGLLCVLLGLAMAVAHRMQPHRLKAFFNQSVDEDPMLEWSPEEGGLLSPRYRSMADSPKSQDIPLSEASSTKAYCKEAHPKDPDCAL

Variants of: B1
Settings: with doxa1_human DUOXA1, Q1HG43

Effect of a mutation on the interaction, disrupting interaction strength:
R507E
R507A
R50E
